The results in this text go back to US7378234B2, “Method for isolating hepatitis C virus peptides” (Intercell AG, priority 2002, dated 2008).

Entries after “also recorded” stand apart in the source; their conditions may differ.

This assay concerns HLA-B*0702 transgenic mice. In words: Vaccination of HLA-B*0702 transgenic mice (peptide + IC31), IFN-gamma ELISpot with spleen cells and CD8+ fraction. It is filed as in vivo, mouse. The note with it: for specific INF-γ producing T cells / HLA-B*0702 epitope in HLA-B*0702 transgenic mice (in words): peptide + IC31, whole spleen cells and CD8+ fraction. As for the experimental part: Mouse splenocyte ELIspot assay for single cell IFN-gamma release ELISpot plates (MAHA S4510, Millipore, Germany) were rinsed with PBS (200 μl/well), coated with anti-mouse IFN-gamma mAb (clone R46A2; 100 μl/well of 5 μg/ml in 0.1 M NaHCO3, pH 9.2-9.5) and incubated overnight at 4° C. Plates were washed four times with PBS/0.1% Tween 20 and incubated with PBS/1% BSA (200 μl/well) at room temperature for 2 h to block nonspecific binding. Spleen cells from vaccinated mice were prepared and plated at 1×10^6-3×10^5 cells/well and incubated overnight at 37° C./5% CO2 either in the presence of the immunizing antigen (peptide), control peptides or with medium alone. Subsequently, plates were washed four times and incubated with biotinylated anti-mouse IFN-gamma mAb (clone AN18.17.24, 100 μl/well of 2 μg/ml in PBS/1% BSA) for 2 h at 37° C. After washing, streptavidin-peroxidase (Roche Diagnostics, Vienna, Austria) was added ( 1/5000 in PBS, 100 μl/well) and plates were incubated at room temperature for 2 additional hours. Subsequently, substrate was added to the washed plates (100 μl/well of a mixture of 10 ml 100 mM Tris pH 7.5 supplemented with 200 μl of 40 mg/ml DAB stock containing 50 μl of 80 mg/ml NiCl2 stock and 5 μl of 30% H2O2). The reaction was stopped after 20-30 minutes by washing the plates with tap water. Dried plates were evaluated with an ELISpot reader (BIOREADER 2000, BioSys, Karben, Germany).
Groups of 5 mice (HLA-A*0201-, HLA-DRB1*0401- and HLA-B*0702 transgenic mice, male, 8-14 weeks of age) were injected subcutaneous into the hind footpads with 100 μg of peptide +IC31 per mouse (50 μg per footpad). (PCT/EP01/12041, WO 02/32451 A1 and PCT/EP01/06433, WO 01/93905 A1; IC31 is a combination of the immunizer disclosed in WO 01/93905 and WO 02/32451). […]

B1: MSTNPKPQRKTKRNTNRRPQDVKFPGGGQIVGGVYLLPRRGPRLGVRATRKTSERSQPRGRRQPIPK (peptide)
peptide: MSTNPKPQRKTKRNTNRRPQDVKFPGGGQIVGGVYLLPRRGPRLGVRATRKTSERSQPRGRRQPIPK
With B1, the “specific INF-γ producing T cells / HLA-B*0702 epitope in HLA-B*0702 transgenic mice (in words)” value is given as “confirmed to contain human HLA-B*0702 epitopes; also recorded: HLA-B*0702 epitopes with T-cell activating capacity”. For the same molecule, the “Immunogenicity, peptide-specific IFN-gamma-producing cells, B*0702” value (HLA-B*0702 transgenic mice, splenocytes) was “+ (immunogenic (+, less than 100 peptide-specific cells among a million splenocytes))”. The “specific INF-γ producing T cells / HLA-B*0702 epitope in HLA-B*0702 transgenic mice (in words)” value (listed as Ipep1506) is given as “significant interferon-gamma induction”.
